Changes are numbered by the printed parent chain.
Tests used:
[1] = biological target: T1, human CD123 Strep-II tagged Fc-fusion protein (human); test: SPR Proteon XPR36, rat IgG captured, CD123-Fc analyte
T1 construct: also called human CD123-Fc; recombinant CD123
Method: (§1) Screening of anti-CD123 rat IgGs for binding affinities to human CD123 and cross-reactivities to cyno CD123 was performed with hybridoma supernatants using a Proteon XPR36 (Biorad) in a one-shot kinetics approach. A capture assay was established using a goat anti-rat IgG (112-005-071, Jackson Immuno Research). The capture antibody was coated on GLC chips (176-5011, Biorad) to approx. 8000 RU in the vertical direction using the amine coupling kit (176-2410, Biorad). […] Binding kinetics with human and cyno CD123-Fc fusion protein was measured at 100 μl/min in the horizontal direction with 120 sec. and 600 sec. for association and dissociation, respectively. The CD123-Fc proteins were used in twofold dilutions from 6 nM to 100 nM. PBSET buffer (176-2730, Biorad) was used as assay buffer. Regeneration was achieved by injection of 10 mM Glycine buffer pH 1.5 for 18 sec at 30 μl/min. Data processing and analysis was performed using ProteonManager software v3.0. Fitting of the sensorgrams was done with a 1:1 Langmuir model.

[2] = biological target: T2, Macaca fascicularis CD123 Fc-fusion protein (Macaca fascicularis); test: as above
T2 construct: also called cyno CD123-Fc
Method: as §1

[3] = biological target: T3, human CD123 (IL3RA) on cells (human, UniProt P26951 19-378); test: flow cytometry, CD123 transfected HEK293, hybridoma supernatant
T3 construct: also called CD123 transfected HEK293; THP-1
Method: Cells were resuspended in 200 μl Stain Buffer with FBS per well and were measured using the MACSQuant (Miltenyi Biotec) or LSRII (BD) flow cytometer. Further data analyses were performed using the FlowJo software (Tree Star, Inc.). Read out was percentage of cells positive for antibody binding. Cells treated only with the secondary but no primary antibody were used to set the gates. Curves were calculated by XLfit (Algorithm 205).

T3 sequence (P26951 19-378): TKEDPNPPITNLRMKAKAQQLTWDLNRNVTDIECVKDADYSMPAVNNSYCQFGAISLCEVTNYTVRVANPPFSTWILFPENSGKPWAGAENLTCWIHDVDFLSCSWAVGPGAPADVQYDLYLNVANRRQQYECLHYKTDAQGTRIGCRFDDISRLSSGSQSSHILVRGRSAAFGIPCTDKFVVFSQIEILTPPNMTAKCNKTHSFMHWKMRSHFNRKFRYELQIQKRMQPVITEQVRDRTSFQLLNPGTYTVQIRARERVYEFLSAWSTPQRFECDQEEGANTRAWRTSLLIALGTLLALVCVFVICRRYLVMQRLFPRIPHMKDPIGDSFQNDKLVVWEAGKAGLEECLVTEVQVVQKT
T2 sequence (chain, as listed by the source limits assumed): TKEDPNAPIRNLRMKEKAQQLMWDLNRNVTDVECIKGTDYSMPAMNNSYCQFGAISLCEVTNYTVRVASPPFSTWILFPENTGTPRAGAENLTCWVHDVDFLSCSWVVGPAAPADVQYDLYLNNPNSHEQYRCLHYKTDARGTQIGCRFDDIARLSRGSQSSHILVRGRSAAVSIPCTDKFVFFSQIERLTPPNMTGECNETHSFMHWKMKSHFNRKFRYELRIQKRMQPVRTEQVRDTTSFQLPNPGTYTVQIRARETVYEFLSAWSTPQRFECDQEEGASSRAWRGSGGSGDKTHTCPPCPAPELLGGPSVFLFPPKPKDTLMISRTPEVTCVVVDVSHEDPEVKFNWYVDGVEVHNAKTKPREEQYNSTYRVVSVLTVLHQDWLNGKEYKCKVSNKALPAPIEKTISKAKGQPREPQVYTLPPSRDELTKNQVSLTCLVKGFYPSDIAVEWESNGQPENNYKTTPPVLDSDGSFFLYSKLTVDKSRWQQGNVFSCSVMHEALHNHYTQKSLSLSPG
T1 sequence (chain, as listed by the source limits assumed): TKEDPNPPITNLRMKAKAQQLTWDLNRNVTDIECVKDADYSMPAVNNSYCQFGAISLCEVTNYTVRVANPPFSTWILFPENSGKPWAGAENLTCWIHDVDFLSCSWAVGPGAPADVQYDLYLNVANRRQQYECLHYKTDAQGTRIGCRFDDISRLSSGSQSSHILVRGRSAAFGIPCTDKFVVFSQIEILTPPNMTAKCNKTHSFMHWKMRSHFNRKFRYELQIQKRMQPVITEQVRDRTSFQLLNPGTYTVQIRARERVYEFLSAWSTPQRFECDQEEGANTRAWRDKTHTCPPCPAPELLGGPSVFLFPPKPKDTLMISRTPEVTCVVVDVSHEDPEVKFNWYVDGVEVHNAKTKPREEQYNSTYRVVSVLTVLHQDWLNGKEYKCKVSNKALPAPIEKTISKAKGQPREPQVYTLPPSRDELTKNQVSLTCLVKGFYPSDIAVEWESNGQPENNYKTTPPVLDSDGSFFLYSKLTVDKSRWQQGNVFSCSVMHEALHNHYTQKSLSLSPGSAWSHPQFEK

B1: 8B11-B7 anti-CD123 rat IgG (hybridoma supernatant) (antibody, V domains shown)
VH: QVQLQESGPTLVNPGDSVKMSCKASGYTFTDHIIHWVKQSHGKSLEWIGYINPYSGGANYNGKFKSKATLTIDKSSSTAYMEFSRLTSGDSAIYYCALNYGSYYAMDAWGQGTSVTVSS
VL: DIQMTQSPASLSASLGETVTIECRTSKDIYSNLAWFQQEPGNSPQLLIYDASNLADGVPSRFSGSGSGTQYSLQINNLQSEDVASYFCHQYNNYPYTFGTGTKLELK
notes: rat IgG; also called BFX - 8B11
Work on B1 yielded a Kd [1] of 0.01 nM, a koff [1] of 6.2e-06 s⁻¹ and a kon [1] of 470000 M⁻¹ s⁻¹. It also gave a Kd [2] of 0.1 nM and an EC50 [3] of 0.4 ng/mL.

B2: 9F6-G3 anti-CD123 rat IgG (hybridoma supernatant) (antibody, V domains shown)
VH: B1 VH with N13K, H32Y, G56D, A58T, G62E, I72V, S76T, G89E, Y95F
VL: B1 VL with T25P, K27E, Y30H, L33V, F36Y, E39K, Q74K, N77S, N93I, T100S
notes: rat IgG; also called BFX - 9F6
With B2 the Kd [1] was 0.04 nM, the koff [1] was 6.7e-06 s⁻¹ and the kon [1] was 180000 M⁻¹ s⁻¹. The Kd [2] was 0.5 nM and the EC50 [3] was 1.3 ng/mL.

B3: 6B10-E4 anti-CD123 rat IgG (hybridoma supernatant) (antibody, V domains shown)
VH: EVQLVESGGGLVQPGRSLKLSCAASGFTFSHYNMAWVRQAPKKGLEWVATITYDDHSTYYRDSVKGRFTISRDTAKSTLYLQMDSLRSEDTATYYCARLVNYAFAYWGQGTLVTVSS
VL: NIVMTQSPKSMSISVGDRVTMNCKASQTVGNNIAWYQQKPGLSPQLLIDYASNRYTGVPNRFTGGGYGTDFILTINSVQAEDAAFYYCQRMYNSPTFGGGTKLELK
notes: rat IgG; also called BFX - 6B10
B3 was tested, and the Kd [1] was 0.15 nM, the koff [1] was 1.5e-05 s⁻¹ and the kon [1] was 230000 M⁻¹ s⁻¹. The Kd [2] was 0.1 nM and the EC50 [3] was 5 ng/mL.

B4: 5A5-B4 anti-CD123 rat IgG (hybridoma supernatant) (antibody, V domains shown)
VH: QIQIVQSGSDVTSTCNGCGTCYFSGFSLSTTGICVSWIRQPSGKGQEWLADFCWDDGKGYNPSLKNRLSISKDTSNNQVFLKITSVDTADTATYYCARRRVYYGIYFDYWGQGVMVTVSS
VL: DIVMTQSPALAVSPGERVSISCRASNSVSTRMHWYQQKPGQQPKLLIYGASNLESGVPARFSGSGSGTDFTLTIDPVEADDIATYFCQQSWNDPLTFGSGTKLEIK
notes: rat IgG; also called BFX - 5A5
B4 was tested, and the Kd [1] was 1.1 nM, the koff [1] was 0.00012 s⁻¹ and the kon [1] was 130000 M⁻¹ s⁻¹. The Kd [2] was 0.05 nM and the EC50 [3] was 10.1 ng/mL.

B5: 6C10-C4 anti-CD123 rat IgG (hybridoma supernatant) (antibody, V domains shown)
VH: EVKLQESGPSLVQPSETLSLTCTVSGFSLTSYSVHWVRQHSGKSLEWMGRMWNDGDTSYNSAFTSRLSISRDTSKGQVFLKMNSLQTEDTGTYYCARGHRTPFDYWGQGVMVTVSS
VL: DIVMTQSPSSLAVSAGETVTINCKSSQSFLSSGDERNYVAWYQHKPGQSPKLLIYWASTRHSGVPDRFIGSGSGTDFTLTISSVQAEDLAIYYCQQYYDTPLTFGSGTKLEIK
notes: rat IgG; also called BFX - 6C10
With B5 the Kd [1] was 0.75 nM, the koff [1] was 0.00014 s⁻¹ and the kon [1] was 180000 M⁻¹ s⁻¹. It also gave a Kd [2] of 0.79 nM and an EC50 [3] of 6.1 ng/mL.

B6: 9B8-G6 anti-CD123 rat IgG (hybridoma supernatant) (antibody, V domains shown)
VH: EVKLQESGPSLVQSSQTLSLTCTVSGFSLTSYHIHWVRQPPGKGLEWMGVMWSDGDTSYSSALKSRLSISRDTSQSQVFLKMNSLQTEDTATYYCARGDYSSYIYLWFAYWGQGTLVTVSS
VL: B5 VL
notes: rat IgG; also called BFX - 9B8
Binder B6 has a Kd [1] of 0.19 nM, a koff [1] of 0.00028 s⁻¹ and a kon [1] of 1.5e+06 M⁻¹ s⁻¹. The Kd [2] was 0.17 nM and the EC50 [3] was 1.2 ng/mL.

B7: 9D7-C8 anti-CD123 rat IgG (hybridoma supernatant) (antibody, V domains shown)
VH: B6 VH with P40T, S60N, D99Y, I104L
VL: B5 VL with A15E, E35G, R36K, H44Y, H61Q, S83T
notes: rat IgG; also called BFX - 9D7
For B7, the Kd [1] was 0.3 nM, the koff [1] was 0.00032 s⁻¹ and the kon [1] was 1e+06 M⁻¹ s⁻¹. The Kd [2] was 0.07 nM and the EC50 [3] was 0.9 ng/mL.

Source: patent US20210292423A1 (published 2021)
